Measured values: publication PMC8634136 (The EMBO Journal, 2021)

Tests used:
MCM3 = biological target: T1, MCM3 (human, UniProt P25205-1 1-808); test: cryo-EM structure; core human replisome (100 nM hsCMG with 1.5-fold excess of AND-1, TIMELESS-TIPIN, Pol ε, CLASPIN) on fork DNA with AMP-PNP; glycerol gradient with glutaraldehyde and BS3; consensus map 3.2 Å and multi-body map of Pol ε/CDC45/GINS; PDB 7PFO; settings: both partners purified
T1 construct: human MCM3, subunit of hsCMG; the construct lacks the 45 additional N-terminal residues of the longer isoform used in PDB 6XTX; Subunit of the CMG helicase in the replisome structure; source: Hi5 insect cells co-infected with baculoviruses for MCM2-7, GINS and CDC45; purified as hsCMG (Flag M2, Strep-Tactin XT, MonoQ)
T1 sequence: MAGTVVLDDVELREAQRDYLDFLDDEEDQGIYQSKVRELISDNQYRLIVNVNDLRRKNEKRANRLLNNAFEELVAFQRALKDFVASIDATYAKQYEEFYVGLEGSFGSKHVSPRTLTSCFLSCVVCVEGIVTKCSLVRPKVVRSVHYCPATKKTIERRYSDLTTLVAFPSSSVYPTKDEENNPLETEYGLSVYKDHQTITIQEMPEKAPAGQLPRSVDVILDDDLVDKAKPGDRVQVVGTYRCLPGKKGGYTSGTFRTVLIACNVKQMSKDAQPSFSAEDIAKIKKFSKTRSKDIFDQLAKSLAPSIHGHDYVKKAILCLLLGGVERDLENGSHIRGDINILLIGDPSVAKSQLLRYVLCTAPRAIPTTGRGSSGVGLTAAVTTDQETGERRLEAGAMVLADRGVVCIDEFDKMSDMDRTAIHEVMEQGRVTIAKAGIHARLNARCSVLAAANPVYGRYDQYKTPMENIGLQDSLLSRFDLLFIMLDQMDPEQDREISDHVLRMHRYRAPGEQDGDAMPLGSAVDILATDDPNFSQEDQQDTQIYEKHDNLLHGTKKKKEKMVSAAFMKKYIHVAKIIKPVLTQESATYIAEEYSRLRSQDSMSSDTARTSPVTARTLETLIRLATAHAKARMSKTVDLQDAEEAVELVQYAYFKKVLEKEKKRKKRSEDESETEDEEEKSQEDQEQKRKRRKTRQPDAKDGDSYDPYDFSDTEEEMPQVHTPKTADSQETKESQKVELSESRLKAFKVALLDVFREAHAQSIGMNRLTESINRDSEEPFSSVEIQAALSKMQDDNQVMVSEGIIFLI

[1] = biological target: T2, human CDC45‐MCM‐GINS (CMG) helicase (human, UniProt P49736 1-904; P25205 1-808; P33991 1-863; P33992 1-734; Q14566 1-821; P33993 …); test: co-sedimentation; native glycerol gradient without cross-linker (40 mM HEPES-NaOH pH 7.5, 150 mM NaOAc, 0.5 mM TCEP, 500 µM AMP-PNP, 3 mM Mg(OAc)2), 200,000 g, 4°C, 2 h; 100 nM CMG pre-incubated with fork DNA, 1.5-fold molar excess of the other proteins; fractions on silver-stained SDS-PAGE; settings: both partners purified
T2 construct: MCM2, human; MCM3, human; the construct lacks the 45 additional N-terminal amino acids of the longer isoform used in PDB 6XTX; MCM4, human; MCM5, human; MCM6, human; MCM7, human; CDC45, human; PSF1 (GINS subunit), human; PSF2 (GINS subunit), human; PSF3 (GINS subunit), human; SLD5 (GINS subunit), human; also called hsCMG; source: Hi5 insect cells co-infected with baculoviruses for MCM2-7, GINS …

[2] = biological target: the molecule itself; test: cryo-EM structure; replisome reconstituted on fork DNA with AMP-PNP, isolated on a glycerol gradient with glutaraldehyde and BS3; 3.2 Å overall; a sample without CLASPIN solved at 3.4 Å
MCM7 = biological target: T3, MCM7 (human, UniProt P33993 1-719); test: as above; settings: both partners purified
T3 construct: MCM7, human; Stood in the structure as a subunit of m1; source: Hi5 insect cells, purified as a subunit of hsCMG
T3 sequence (P33993 whole entry): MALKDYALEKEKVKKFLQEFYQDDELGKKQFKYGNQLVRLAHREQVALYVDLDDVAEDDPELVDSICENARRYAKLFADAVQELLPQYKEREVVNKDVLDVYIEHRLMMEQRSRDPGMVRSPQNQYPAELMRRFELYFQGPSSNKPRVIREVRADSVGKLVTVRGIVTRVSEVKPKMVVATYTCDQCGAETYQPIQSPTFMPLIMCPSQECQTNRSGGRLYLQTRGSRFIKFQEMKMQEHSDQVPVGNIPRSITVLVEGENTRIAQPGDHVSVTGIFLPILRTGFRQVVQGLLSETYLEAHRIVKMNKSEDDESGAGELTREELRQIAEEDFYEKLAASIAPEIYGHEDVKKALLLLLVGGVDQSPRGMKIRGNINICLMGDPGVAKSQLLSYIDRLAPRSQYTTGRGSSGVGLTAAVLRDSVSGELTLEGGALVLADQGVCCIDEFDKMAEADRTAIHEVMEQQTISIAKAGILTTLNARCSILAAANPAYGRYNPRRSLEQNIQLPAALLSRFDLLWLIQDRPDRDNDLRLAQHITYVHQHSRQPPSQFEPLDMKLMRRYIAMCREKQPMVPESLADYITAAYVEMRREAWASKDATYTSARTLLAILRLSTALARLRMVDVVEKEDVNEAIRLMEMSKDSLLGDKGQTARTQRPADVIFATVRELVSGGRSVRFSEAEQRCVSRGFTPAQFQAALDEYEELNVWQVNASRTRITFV

TIMELESS = biological target: T4, TIMELESS (human, UniProt Q9UNS1 1-1208); test: as above; settings: both partners purified
T4 construct: Stood in the structure as a subunit of m3; residues 7-803 modelled (527-684 not visualised)
T4 sequence: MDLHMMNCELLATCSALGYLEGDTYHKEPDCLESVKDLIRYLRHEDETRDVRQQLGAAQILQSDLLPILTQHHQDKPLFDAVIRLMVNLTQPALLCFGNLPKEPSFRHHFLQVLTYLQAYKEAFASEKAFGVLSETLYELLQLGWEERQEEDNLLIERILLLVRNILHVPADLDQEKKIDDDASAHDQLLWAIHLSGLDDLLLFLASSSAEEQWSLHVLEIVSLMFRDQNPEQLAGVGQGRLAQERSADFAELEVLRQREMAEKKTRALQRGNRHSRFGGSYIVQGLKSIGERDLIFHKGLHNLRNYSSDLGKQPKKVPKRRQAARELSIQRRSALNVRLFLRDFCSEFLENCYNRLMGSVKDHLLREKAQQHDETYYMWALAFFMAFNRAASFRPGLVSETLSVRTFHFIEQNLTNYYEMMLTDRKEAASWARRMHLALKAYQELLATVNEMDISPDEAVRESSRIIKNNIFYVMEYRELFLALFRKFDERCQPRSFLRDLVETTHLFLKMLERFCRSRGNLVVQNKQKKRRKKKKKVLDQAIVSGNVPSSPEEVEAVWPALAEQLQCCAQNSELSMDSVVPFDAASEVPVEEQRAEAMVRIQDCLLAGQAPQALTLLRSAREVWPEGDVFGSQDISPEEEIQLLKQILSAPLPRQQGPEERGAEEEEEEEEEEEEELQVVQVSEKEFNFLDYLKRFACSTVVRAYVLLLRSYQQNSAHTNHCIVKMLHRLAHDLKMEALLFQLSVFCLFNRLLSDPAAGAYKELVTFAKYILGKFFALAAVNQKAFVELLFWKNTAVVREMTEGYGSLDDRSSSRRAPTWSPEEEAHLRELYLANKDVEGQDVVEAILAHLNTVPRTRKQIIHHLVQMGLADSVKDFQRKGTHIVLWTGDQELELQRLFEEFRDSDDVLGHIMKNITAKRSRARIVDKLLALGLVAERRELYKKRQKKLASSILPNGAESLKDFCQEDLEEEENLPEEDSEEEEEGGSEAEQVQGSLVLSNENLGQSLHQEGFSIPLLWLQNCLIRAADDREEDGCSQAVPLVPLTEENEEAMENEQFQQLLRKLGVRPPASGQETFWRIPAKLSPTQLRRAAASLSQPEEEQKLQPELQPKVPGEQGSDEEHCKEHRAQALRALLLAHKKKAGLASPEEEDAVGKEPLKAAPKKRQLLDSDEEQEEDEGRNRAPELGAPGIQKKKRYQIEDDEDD

CLASPIN = biological target: T5, CLASPIN (human, UniProt Q9HAW4 1-1339); test: as above; settings: both partners purified
T5 construct: CLASPIN, human; Only residues 284-319, 525-540 and 592-618 are modelled in the structure; source: Hi5 insect cells (baculovirus), purified (Flag M2, Superose 6)
T5 sequence (Q9HAW4 whole entry, the tested form may be a part): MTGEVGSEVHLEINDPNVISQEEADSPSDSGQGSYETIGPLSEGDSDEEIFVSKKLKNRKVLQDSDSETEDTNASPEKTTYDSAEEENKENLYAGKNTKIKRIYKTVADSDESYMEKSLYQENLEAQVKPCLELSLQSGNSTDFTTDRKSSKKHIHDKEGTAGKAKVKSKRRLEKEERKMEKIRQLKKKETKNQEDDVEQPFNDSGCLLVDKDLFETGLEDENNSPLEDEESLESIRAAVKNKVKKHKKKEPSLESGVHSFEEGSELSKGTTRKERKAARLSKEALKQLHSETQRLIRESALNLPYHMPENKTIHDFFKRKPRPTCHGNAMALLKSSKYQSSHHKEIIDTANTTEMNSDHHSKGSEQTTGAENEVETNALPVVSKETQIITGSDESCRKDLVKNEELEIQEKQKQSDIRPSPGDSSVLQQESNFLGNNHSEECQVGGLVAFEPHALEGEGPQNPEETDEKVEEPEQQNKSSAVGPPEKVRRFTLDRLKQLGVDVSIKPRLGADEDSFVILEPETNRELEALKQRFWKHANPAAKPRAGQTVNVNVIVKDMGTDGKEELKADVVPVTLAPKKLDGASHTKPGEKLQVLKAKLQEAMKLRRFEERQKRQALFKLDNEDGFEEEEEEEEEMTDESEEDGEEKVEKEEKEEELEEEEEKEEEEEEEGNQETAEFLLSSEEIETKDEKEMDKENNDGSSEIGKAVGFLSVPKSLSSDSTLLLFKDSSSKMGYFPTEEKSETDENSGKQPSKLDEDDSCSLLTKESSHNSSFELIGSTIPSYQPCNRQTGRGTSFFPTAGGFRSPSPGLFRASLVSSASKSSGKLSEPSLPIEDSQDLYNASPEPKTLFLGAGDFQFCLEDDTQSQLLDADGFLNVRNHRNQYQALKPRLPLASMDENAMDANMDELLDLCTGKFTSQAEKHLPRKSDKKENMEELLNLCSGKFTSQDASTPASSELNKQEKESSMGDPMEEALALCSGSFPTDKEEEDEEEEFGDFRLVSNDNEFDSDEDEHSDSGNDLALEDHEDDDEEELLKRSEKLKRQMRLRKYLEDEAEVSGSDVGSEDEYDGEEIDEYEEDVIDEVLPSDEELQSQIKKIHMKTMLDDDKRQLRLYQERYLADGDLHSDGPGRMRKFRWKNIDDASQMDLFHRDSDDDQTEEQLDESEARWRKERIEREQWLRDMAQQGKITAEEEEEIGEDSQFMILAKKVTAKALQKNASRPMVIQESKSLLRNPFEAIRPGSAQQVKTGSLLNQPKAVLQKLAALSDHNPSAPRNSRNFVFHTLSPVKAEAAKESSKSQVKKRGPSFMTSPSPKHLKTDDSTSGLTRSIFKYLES

B1: POLE2 (natural protein, human)
chain: MAPERLRSRALSAFKLRGLLLRGEAIKYLTEALQSISELELEDKLEKIINAVEKQPLSSNMIERSVVEAAVQECSQSVDETIEHVFNIIGAFDIPRFVYNSERKKFLPLLMTNHPAPNLFGTPRDKAEMFRERYTILHQRTHRHELFTPPVIGSHPDESGSKFQLKTIETLLGSTTKIGDAIVLGMITQLKEGKFFLEDPTGTVQLDLSKAQFHSGLYTEACFVLAEGWFEDQVFHVNAFGFPPTEPSSTTRAYYGNINFFGGPSNTSVKTSAKLKQLEEENKDAMFVFLSDVWLDQVEVLEKLRIMFAGYSPAPPTCFILCGNFSSAPYGKNQVQALKDSLKTLADIICEYPDIHQSSRFVFVPGPEDPGFGSILPRPPLAESITNEFRQRVPFSVFTTNPCRIQYCTQEITVFREDLVNKMCRNCVRFPSSNLAIPNHFVKTILSQGHLTPLPLYVCPVYWAYDYALRVYPVPDLLVIADKYDPFTTTNTECLCINPGSFPRSGFSFKVFYPSNKTVEDSKLQGF
notes: human POLE2, subunit of Pol ε; residues 1-527 modelled; Purified with POLE1, POLE3 (C-terminal TEV CBP tag) and POLE4
B1: binds (MCM3).

B2: AND‐1 (natural protein, human)
chain: MPATRKPMRYGHTEGHTEVCFDDSGSFIVTCGSDGDVRIWEDLDDDDPKFINVGEKAYSCALKSGKLVTAVSNNTIQVHTFPEGVPDGILTRFTTNANHVVFNGDGTKIAAGSSDFLVKIVDVMDSSQQKTFRGHDAPVLSLSFDPKDIFLASASCDGSVRVWQISDQTCAISWPLLQKCNDVINAKSICRLAWQPKSGKLLAIPVEKSVKLYRRESWSHQFDLSDNFISQTLNIVTWSPCGQYLAAGSINGLIIVWNVETKDCMERVKHEKGYAICGLAWHPTCGRISYTDAEGNLGLLENVCDPSGKTSSSKVSSRVEKDYNDLFDGDDMSNAGDFLNDNAVEIPSFSKGIINDDEDDEDLMMASGRPRQRSHILEDDENSVDISMLKTGSSLLKEEEEDGQEGSIHNLPLVTSQRPFYDGPMPTPRQKPFQSGSTPLHLTHRFMVWNSIGIIRCYNDEQDNAIDVEFHDTSIHHATHLSNTLNYTIADLSHEAILLACESTDELASKLHCLHFSSWDSSKEWIIDLPQNEDIEAICLGQGWAAAATSALLLRLFTIGGVQKEVFSLAGPVVSMAGHGEQLFIVYHRGTGFDGDQCLGVQLLELGKKKKQILHGDPLPLTRKSYLAWIGFSAEGTPCYVDSEGIVRMLNRGLGNTWTPICNTREHCKGKSDHYWVVGIHENPQQLRCIPCKGSRFPPTLPRPAVAILSFKLPYCQIATEKGQMEEQFWRSVIFHNHLDYLAKNGYEYEESTKNQATKEQQELLMKMLALSCKLEREFRCVELADLMTQNAVNLAIKYASRSRKLILAQKLSELAVEKAAELTATQVEEEEEEEDFRKKLNAGYSNTATEWSQPRFRNQVEEDAEDSGEADDEEKPEIHKPGQNSFSKSTNSSDVSAKSGAVTFSSQGRVNPFKVSASSKEPAMSMNSARSTNILDNMGKSSKKSTALSRTTNNEKSPIIKPLIPKPKPKQASAASYFQKRNSQTNKTEEVKEENLKNVLSETPAICPPQNTENQRPKTGFQMWLEENRSNILSDNPDFSDEADIIKEGMIRFRVLSTEERKVWANKAKGETASEGTEAKKRKRVVDESDETENQEEKAKENLNLSKKQKPLDFSTNQKLSAFAFKQE
notes: AND-1, human; Only the trimer of SepB domains is ordered in the map; source: Hi5 insect cells (baculovirus), purified (Flag M2, MonoQ, Superdex 200)
B2 was tested, and the binding result [1] was “binds” and the “stoichiometry N” value [2] was 3.

B3: TIPIN (natural protein, human)
chain: MLEPQENGVIDLPDYEHVEDETFPPFPPPASPERQDGEGTEPDEESGNGAPVRVPPKRTVKRNIPKLDAQRLISERGLPALRHVFDKAKFKGKGHEAEDLKMLIRHMEHWAHRLFPKLQFEDFIDRVEYLGSKKEVQTCLKRIRLDLPILHEDFVSNNDEVAENNEHDVTSTELDPFLTNLSESEMFASELSRSLTEEQQQRIERNKQLALERRQAKLLSNSQTLGNDMLMNTPRAHTVEEVNTDEDQKEESNGLNEDILDNPCNDAIANTLNEEETLLDQSFKNVQQQLDATSRNITEAR
notes: TIPIN, human; Stood in the structure as a subunit of m3; residues 62-147 modelled
B3: binds (MCM7); binds (TIMELESS).

B4: MCM6 (natural protein, human)
chain: MDLAAAAEPGAGSQHLEVRDEVAEKCQKLFLDFLEEFQSSDGEIKYLQLAEELIRPERNTLVVSFVDLEQFNQQLSTTIQEEFYRVYPYLCRALKTFVKDRKEIPLAKDFYVAFQDLPTRHKIRELTSSRIGLLTRISGQVVRTHPVHPELVSGTFLCLDCQTVIRDVEQQFKYTQPNICRNPVCANRRRFLLDTNKSRFVDFQKVRIQETQAELPRGSIPRSLEVILRAEAVESAQAGDKCDFTGTLIVVPDVSKLSTPGARAETNSRVSGVDGYETEGIRGLRALGVRDLSYRLVFLACCVAPTNPRFGGKELRDEEQTAESIKNQMTVKEWEKVFEMSQDKNLYHNLCTSLFPTIHGNDEVKRGVLLMLFGGVPKTTGEGTSLRGDINVCIVGDPSTAKSQFLKHVEEFSPRAVYTSGKASSAAGLTAAVVRDEESHEFVIEAGALMLADNGVCCIDEFDKMDVRDQVAIHEAMEQQTISITKAGVKATLNARTSILAAANPISGHYDRSKSLKQNINLSAPIMSRFDLFFILVDECNEVTDYAIARRIVDLHSRIEESIDRVYSLDDIRRYLLFARQFKPKISKESEDFIVEQYKHLRQRDGSGVTKSSWRITVRQLESMIRLSEAMARMHCCDEVQPKHVKEAFRLLNKSIIRVETPDVNLDQEEEIQMEVDEGAGGINGHADSPAPVNGINGYNEDINQESAPKASLRLGFSEYCRISNLIVLHLRKVEEEEDESALKRSELVNWYLKEIESEIDSEEELINKKRIIEKVIHRLTHYDHVLIELTQAGLKGSTEGSESYEEDPYLVVNPNYLLED
notes: MCM6, human; Stood in the structure as a subunit of m1; source: Hi5 insect cells, purified as a subunit of hsCMG
B4: binds (CLASPIN); binds (TIMELESS).
